Where “and” joins values, the source holds several entries; their conditions need not be identical. Equal entries are not always repeated.
Legend:
[1] = tested on: Homo sapiens alpha-(1,6)-fucosyl transferase (FUT8) mRNA; assay: Inhibition of antibody fucosylation in HEK cell pools, amiRNA directed toward FUT8; assay type: cell-based
Excerpt: Two different multi-hairpin amiRNA sequences were designed to target genes involved in the fucosylation pathway in human cells: alpha-(1,6)-fucosyl transferase (FUT8), GDP-Mannose 4,6-dehydratase (GMD), and GDP-fucose transporter 1 (GFT). One Multi-hairpin amiRNA, with nucleotide sequence SEQ ID NO: 202 comprised three hairpins; the first hairpin comprised guide strand sequence SEQ ID NO: 29, immediately followed by loop sequence SEQ ID NO: 241 and passenger strand sequence SEQ ID NO: 114, the second hairpin comprised guide strand sequence SEQ ID NO: 30, immediately followed by loop sequence SEQ ID NO: 241 and passenger strand sequence SEQ ID NO: 115, the third hairpin comprised guide strand sequence SEQ ID NO: 31, immediately followed by loop sequence SEQ ID NO: 241 and passenger strand sequence SEQ ID NO: 116. Each of these three guide strand sequences was a 22 base sequence that was an exact reverse complement of a different region within the Homo sapiens alpha-(1,6)-fucosyl transferase (FUT8) mRNA. Each passenger strand sequence was complementary to its corresponding guide strand sequence, except that the bases in the passenger strand sequences corresponding to the 5′ base of the guide strand and the twelfth base of the guide strand were changed to be non-complementary. The first and twelfth bases of guide strand with SEQ ID NO: 29 are T and T respectively, the corresponding bases in the corresponding passenger strand sequence SEQ ID NO: 114 are C and C respectively. The first and twelfth bases of guide strand with SEQ ID NO: 30 are T and T respectively, the corresponding bases in the corresponding passenger strand sequence SEQ ID NO: 115 are C and C respectively. The first and twelfth bases of guide strand with SEQ ID NO: 31 are T and A respectively, the corresponding bases in the corresponding passenger strand sequence SEQ ID NO: 116 are C and C respectively. Each hairpin in multi-hairpin amiRNA nucleotide sequence SEQ ID NO: 202 further comprised additional stem-stabilizing sequences, with stem sequence SEQ ID NO: 255 immediately preceding the guide strand sequence, and stem sequence SEQ ID NO: 256 immediately following the passenger strand sequence. Multi-hairpin amiRNA nucleotide sequence SEQ ID NO: 202 further comprised an unstructured sequence with SEQ ID NO: 251 to the 5′ of the first hairpin, and an unstructured sequence with SEQ ID NO: 253 to the 3′ of the third hairpin. […]
The multi-hairpin amiRNA sequences were placed to the 3′ of an open reading frame encoding a red fluorescent protein (with nucleotide sequence SEQ ID NO: 279) and followed by a rabbit globin polyadenylation sequence. […]

[2] = tested on: Cricetulus griseus interferon receptor subunit 1 mRNA and subunit 2 mRNA; assay: Expression of human interferon beta from CHO cells (ELISA), amiRNA to both interferon receptor subunits; assay type: cell-based; settings: for Average Titer: average of duplicate cultures; for interferon beta expression compared with the control transposon: control transposon expressed 48 μg/ml; for Titer: 10-day fed batch
Excerpt: One multi-hairpin amiRNA, with nucleotide sequence SEQ ID NO: 600, comprised five hairpins; the first hairpin comprised a guide strand with nucleotide sequence SEQ ID NO: 103, immediately followed by a loop with nucleotide sequence SEQ ID NO: 241 and passenger strand with nucleotide sequence SEQ ID NO: 188; the second hairpin comprised a guide strand with nucleotide sequence SEQ ID NO: 95, immediately followed by a loop with nucleotide sequence SEQ ID NO: 241 and passenger strand with nucleotide sequence SEQ ID NO: 180; the third hairpin comprised a guide strand with nucleotide sequence SEQ ID NO: 104, immediately followed by a loop with nucleotide sequence SEQ ID NO: 241 and a passenger strand with nucleotide sequence SEQ ID NO: 189; the fourth hairpin comprised a guide strand with nucleotide sequence SEQ ID NO: 97, immediately followed by a loop with nucleotide sequence SEQ ID NO: 241 and a passenger strand with nucleotide sequence SEQ ID NO: 182; the fifth hairpin comprised a guide strand with nucleotide sequence SEQ ID NO: 102, immediately followed by a loop with nucleotide sequence SEQ ID NO: 241 and a passenger strand with nucleotide sequence SEQ ID NO: 187. Two of these five guide strand sequences were a 22 base sequence that was an exact reverse complement of a different region within the Cricetulus griseus interferon receptor subunit 1 mRNA (with nucleotide sequence SEQ ID NO: 19); three of these five guide strand sequences were a 22 base sequence that was an exact reverse complement of a different region within the Cricetulus griseus interferon receptor subunit 2 mRNA (with nucleotide sequence SEQ ID NO: 20). Each passenger strand sequence was complementary to its corresponding guide strand sequence, except that the bases in the passenger strand sequences corresponding to the 5′ base of the guide strand and the twelfth base of the guide strand were changed to be non-complementary.
One multi-hairpin amiRNA, with nucleotide sequence SEQ ID NO: 601, comprised four hairpins; the first hairpin comprised a guide strand with nucleotide sequence SEQ ID NO: 101, immediately followed by a loop with nucleotide sequence SEQ ID NO: 241 and passenger strand with nucleotide sequence SEQ ID NO: 186; the second hairpin comprised a guide strand with nucleotide sequence SEQ ID NO: 99, immediately followed by a loop with nucleotide sequence SEQ ID NO: 241 and passenger strand with nucleotide sequence SEQ ID NO: 184; the third hairpin comprised a guide strand with nucleotide sequence SEQ ID NO: 102, immediately followed by a loop with nucleotide sequence SEQ ID NO: 241 and a passenger strand with nucleotide sequence SEQ ID NO: 187; the fourth hairpin comprised a guide strand with nucleotide sequence SEQ ID NO: 106, immediately followed by a loop with nucleotide sequence SEQ ID NO: 241 and a passenger strand with nucleotide sequence SEQ ID NO: 191. Two of these four guide strand sequences were a 22 base sequence that was an exact reverse complement of a different region within the Cricetulus griseus interferon receptor subunit 1 mRNA (with nucleotide sequence SEQ ID NO: 19); two of these four guide strand sequences were a 22 base sequence that was an exact reverse complement of a different region within the Cricetulus griseus interferon receptor subunit 2 mRNA (with nucleotide sequence SEQ ID NO: 20). Each passenger strand sequence was complementary to its corresponding guide strand sequence, except that the bases in the passenger strand sequences corresponding to the 5′ base of the guide strand and the twelfth base of the guide strand were changed to be non-complementary. […]

[3] = interferon beta in supernatant, first of duplicate cultures
[4] = interferon beta, second of duplicate cultures

Row | Molecule | G0 + G1 % (area) ([1]; afucosylated antibody, HEK pool, 7-day transient culture, listed as 202) | Titer ([1]; antibody in culture supernatant, HEK pool, 7-day culture, listed as 202) | reduction of antibody fucosylation ([1]; both replicates of HEK cell pools (Table 3 rows 3 and 4)) | G0F + G1F (% area) ([1]; fucosylated antibody, HEK pool, 7-day transient culture, listed as 202) | Average Titer [2] | interferon beta expression compared with the control transposon [2] | Titer [2, 3] | Titer [2, 4]
1 | SEQ ID NO: 202: three-hairpin amiRNA, guides SEQ ID NOs 29, 30, 31 complementary to Homo sapiens FUT8 mRNA (nucleic acid) ATCTGATCTTCTGAAGAAAATATATTTCTTTTTATTCATAGCTCTTAACTAGTGGTGATAGCAATGTCAGCAGTGCCTTTGGTCGTTTATCTCTTCCATCGTGAAGCCACAGATGGATGGAAGAGCTAAACGACCACAAGTAAGGTTGACCATACTCTACTCTAGAGTTGTGTTTTAATGTATATTAATGTTACTAATGTGTTTACTAGTGGTGATAGCAATGTCAGCAGTGCCTTTCATCTACAGTTTGGCTGAAAGTGAAGCCACAGATGTTTCAGCCAACCTGTAGATGACAAGTAAGGTTGACCATACTCTACTCTAGGTTATTTTTAGTATGATTCTGTAAAAATGAATTAATACTAACTAGTGGTGATAGCAATGTCAGCAGTGCCTTTAAATTACACAATATGGCAGTGTGAAGCCACAGATGACTGCCATATCGTGTAATTTACAAGTAAGGTTGACCATACTCTACTCTAGTCAGTTTTATTGATAGTCTTTTCAGTATTATTGATAATCTT | 90 % (area) and 89 % (area) | 353 mg/L and 316 mg/L | approximately 90% | 10 % area and 11 % area |  |  |  | 
2 | SEQ ID NO: 601: four-hairpin amiRNA, two guides to interferon receptor subunit 1 mRNA and two to subunit 2 mRNA (nucleic acid) ATCTGATCTTCTGAAGAAAATATATTTCTTTTTATTCATAGCTCTTAACTAGTGGTGATAGCAATGTCAGCAGTGCCTTAGTGTAGACAACAGTACCTCTGTGAAGCCACAGATGAGAGGTACTATTGTCTACACTCAAGTAAGGTTGACCATACTCTACTCTAGTTATATTCTTTAGGCACGAATGTGTGTTTAAAAAAAATAAAAACTAGTGGTGATAGCAATGTCAGCAGTGCCTTTCCACGTCTGTCTTGTCCTACGTGAAGCCACAGATGGTAGGACAAGCCAGACGTGGACAAGTAAGGTTGACCATACTCTACTCTAGAGTTGTGTTTTAATGTATATTAATGTTACTAATGTGTTTACTAGTGGTGATAGCAATGTCAGCAGTGCCTTAAACAACAATGGATCCCCAAAGTGAAGCCACAGATGTTTGGGGATCAATTGTTGTTTCAAGTAAGGTTGACCATACTCTACTCTAGGTTATTTTTAGTATGATTCTGTAAAAATGAATTAATACTAACTAGTGGTGATAGCAATGTCAGCAGTGCCTTAACACAGTACCGCCTTAGTGCGTGAAGCCACAGATGGCACTAAGGCAGTACTGTGTTCAAGTAAGGTTGACCATACTCTACTCTAGTCAGTTTTATTGATAGTCTTTTCAGTATTATTGATAATCTT |  |  |  |  | 88.0 µg/mL | as much as twice the expression levels of interferon beta as the control transposon | 97.3 µg/mL | 78.6 µg/mL
3 | SEQ ID NO: 600: five-hairpin amiRNA, two guides to interferon receptor subunit 1 mRNA and three to subunit 2 mRNA (nucleic acid) ATCTGATCTTCTGAAGAAAATATATTTCTTTTTATTCATAGCTCTTAACTAGTGGTGATAGCAATGTCAGCAGTGCCTAAGACTATCAGCAAGAACCAGGGTGAAGCCACAGATGCCTGGTTCTTACTGATAGTCTCAAGTAAGGTTGACCATACTCTACTCTAGTTATATTCTTTAGGCACGAATGTGTGTTTAAAAAAAATAAAAACTAGTGGTGATAGCAATGTCAGCAGTGCCTTAAAATAACACACAAGAGCCATGTGAAGCCACAGATGATGGCTCTTGCGTGTTATTTTCAAGTAAGGTTGACCATACTCTACTCTAGAGTTGTGTTTTAATGTATATTAATGTTACTAATGTGTTTACTAGTGGTGATAGCAATGTCAGCAGTGCCTTTGAAGATAACTTTGTCCCCGGGTGAAGCCACAGATGCCGGGGACAACGTTATCTTCACAAGTAAGGTTGACCATACTCTACTCTAGGTTATTTTTAGTATGATTCTGTAAAAATGAATTAATACTAACTAGTGGTGATAGCAATGTCAGCAGTGCCTTTAAACAGTAAGTAGTCTCTGGGTGAAGCCACAGATGCCAGAGACTAATTACTGTTTACAAGTAAGGTTGACCATACTCTACTCTAGATTTTTCAGATGTATCATCTCTTAAAATACTGTAATTGCAACTAGTGGTGATAGCAATGTCAGCAGTGCCTTAAACAACAATGGATCCCCAAAGTGAAGCCACAGATGTTTGGGGATCAATTGTTGTTTCAAGTAAGGTTGACCATACTCTACTCTAGTCAGTTTTATTGATAGTCTTTTCAGTATTATTGATAATCTT |  |  |  |  | 79.8 µg/mL | as much as twice the expression levels of interferon beta as the control transposon | 80.3 µg/mL | 79.2 µg/mL
